Data as given in patent publication US20050277575A1, “Therapeutic compositions and methods for treating diseases that involve angiogenesis” (priority 2004, published 2005).

Tests used:
[1] = system: Human cerebral endothelial cells (HCEC); assay: Capillary tube formation in Matrigel, S100A4 induced angiogenesis; format: cell-based; settings: primary HCEC grown in Matrigel
Description: Human cerebral endothelial cells (HCEC) were isolated using previously described protocols (Stanimirovic, D., P. Morley, et al. (1996). “Angiotensin II-induced fluid phase endocytosis in human cerebromicrovascular endothelial cells is regulated by the inositol-phosphate signaling pathway.” J Cell Physiol 169(3): 455-67.). Purity of HCEC cultures generated by these procedures was routinely assessed by the immunocytochemical staining for Factor VIII-related antigen and the lack of staining for smooth muscle β-actin, and is estimated to be >95%. The morphological, phenotypic, biochemical and functional characteristics of these HCEC cultures have been described in detail previously (Muruganandam, A., L. M Herx, et al. (1997). “Development of immortalized human cerebromicrovascular endothelial cell line as an in vitro model of the human blood-brain barrier.” Faseb J 11(13): 1187-97).
HCEC were seeded (8×10^4 cells) on a semi-solid basement membrane matrix, Matrigel™ (Collaborative Biomedical Products, Bedford, Mass.)-coated 24-well plates and exposed to serum-free media containing various treatments. […] Confocal apertures for each recorded wavelength were adjusted to a full width half maximum of 20 μm. […] Eight to 32 individual optical sections were collected and the average was calculated. […]

[2] = target: T1, t-PA-mediated plasminogen activation (Homo sapiens, UniProt P00750); assay: t-PA-dependent conversion of plasminogen to plasmin, effect of S100A4 (Example 11); format: biochemical
T1 construct: purchased Calbiochem
Protocol: Non-active plasminogen can be converted to active protease plasmin by tissue type (t-PA) or urokinase type (u-PA) plasminogen activators. Except for its well-known fibrinolytic activity, plasmin also directly and indirectly, by activation of matrix metalloproteinases (MMPs), participates in the degradation of extracellular matrix that is important for the angiogenesis and tumor invasion. The kinetics of t-PA-mediated plasminogen activation was determined by measuring amidolytic activity of the plasmin generated during plasminogen activation. The reaction was performed with the plasmin substrate Chromozyme PL, tosyl-glycyl-prolyl-lysin-4-nitranilide-acetate (Roche) in the final concentration of 125 μM in a buffer consisting of 50 mM Tris-HCl, pH 7.4, 100 mM NaCl, 5 mM of CaCl2 or 5 mM of EGTA, and 150 nM of [Glu] plasminogen (Calbiochem). The reaction was preincubated with or without 2.5 μM S100A4 at 24 C° for 1 h in 96-well plates. The reaction was initiated by addition of t-PA (Calbiochem) up to 5 nM concentration, final volume 100 μl. Kinetic of substrate hydrolysis was measured at 2 min intervals at 405 nm in Spectramax Plus 384 spectrophotometer (Molecular Devices). Analysis of kinetics curves (Vmax, time to Vmax, and initial slope of kinetic data converted to A405 versus time^2) was performed with the help of Softmax PRO program (Molecular Devices).
Kinetics of plasminogen to plasmin conversion consists of three parts. As shown in FIG. #3 curves 1 and 2 for t-PA, during first 1500 s the reaction is second order that corresponds to conversion of plasminogen to plasmin and consequent cleavage of chromogenic substrate by plasmin. The second part of reaction is linear, for which Vmax can be calculated. It starts after total conversion of plasminogen to plasmin and corresponds to cleavage of chromogenic substrate by plasmin with constant rate. In the third part of reaction, after 2700 s, the reaction is slowing down that corresponds to depletion of chromogenic substrate and finally the reaction reaches a plateau when all substrate is cleaved. As follows from the comparison of curves 1 and 2, t-PA along converted plasminogen to plasmin equally efficiently in the presence or absence of calcium. Neither conversion of plasminogen to plasmin took place in the absence of t-PA no S110A4 induced such conversion by itself, curves 5 and 6. In the presence of S100A4 linear part of reaction starts substantially earlier, which means that total conversion of plasminogen to plasmin was accelerated. Kinetic parameters for t-PA along and for combination of t-PA with S100A4 are represented in Table 4. […] S100A4 accelerated conversion of plasminogen to plasmin in calcium independent manner, curves 3 and 4.

annexin II = target: T2, annexin II (Homo sapiens, UniProt P07355); assay: Immunoprecipitation analysis of S100A4-annexin II complex formation; format: binding; settings: monomer and aggregated forms, in Ca2+ or EGTA
T2 construct: GST (N); made in house; host or cells: E. coli ER2507
Protocol: S100A4 and annexin II proteins, both at the concentrations of 1.5 mg/ml, were pre-incubated overnight at 37° C. in TBS containing either 5 mM CaCl2, or 5 mM EGTA.
The formation of the S100A4-annexin II complex was analyzed by immunoprecipitation with an anti-S100A4 rabbit polyclonal antibody. To this end, the reaction mixture was incubated with the antibody (10 μg/ml) for 1 h at 37° C. and then precipitated by adding protein G-sepharose beads (Affi-Gel; Bio-Rad Laboratories, Hercules, Calif.) and incubating the resulted mixture for 1 h at room temperature. After that the beads were washed 3 times by 500 ul of TBS, boiled in Laemmli sample buffer for 5 min, and then loaded on SDS-PAAG. The proteins were then electro-transferred to a nitrocellulose membrane. The Western blot analysis was performed using anti-Annexin II antibody (BD Pharmingen) used at 1:5000 dilution and sheep anti-mouse antibody conjugated to horseradish peroxidase (Amersham Pharmacia Biotech, Piscataway, N.J.) used at 1:10000 dilution, followed visualization of the Annexin II bands by chemiluminescence.
However, the complex formation is more efficient in the case when the aggregated S100A4 are used. Additionally, the interaction between S100A4 (both monomer and oligomer) and annexin II is more efficient in the absence of Ca2+ (EGTA conditions) compared to that observed in the presence of Ca2+.

[3] = Ca (5 mM CaCl2), with or without 2.5 μM S100A4

T1 sequence (P00750 36-562): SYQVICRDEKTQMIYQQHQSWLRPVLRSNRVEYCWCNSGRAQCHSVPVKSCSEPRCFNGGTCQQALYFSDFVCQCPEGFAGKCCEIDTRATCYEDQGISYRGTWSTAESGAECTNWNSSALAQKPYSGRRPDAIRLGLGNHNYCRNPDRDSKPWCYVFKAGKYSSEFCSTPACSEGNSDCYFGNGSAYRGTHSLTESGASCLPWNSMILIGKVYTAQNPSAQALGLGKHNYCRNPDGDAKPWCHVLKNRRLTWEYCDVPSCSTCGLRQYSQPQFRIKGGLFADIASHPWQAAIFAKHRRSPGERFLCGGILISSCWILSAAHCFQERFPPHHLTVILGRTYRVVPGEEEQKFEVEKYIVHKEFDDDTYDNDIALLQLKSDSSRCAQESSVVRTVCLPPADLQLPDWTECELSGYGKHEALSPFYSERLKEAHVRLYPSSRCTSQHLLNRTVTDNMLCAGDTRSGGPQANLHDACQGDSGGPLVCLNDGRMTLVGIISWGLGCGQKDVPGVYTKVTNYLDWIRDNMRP
T2 sequence (P07355 2-339 V98L): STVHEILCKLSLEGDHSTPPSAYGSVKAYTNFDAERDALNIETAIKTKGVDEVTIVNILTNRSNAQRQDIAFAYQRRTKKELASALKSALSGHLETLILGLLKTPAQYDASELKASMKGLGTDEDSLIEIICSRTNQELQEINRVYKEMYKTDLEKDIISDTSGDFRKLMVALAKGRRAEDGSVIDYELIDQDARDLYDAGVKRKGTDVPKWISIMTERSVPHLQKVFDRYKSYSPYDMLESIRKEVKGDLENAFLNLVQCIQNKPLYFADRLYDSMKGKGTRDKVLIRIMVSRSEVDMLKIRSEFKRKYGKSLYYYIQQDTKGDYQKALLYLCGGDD
T2 sequence (P26447 whole entry partner): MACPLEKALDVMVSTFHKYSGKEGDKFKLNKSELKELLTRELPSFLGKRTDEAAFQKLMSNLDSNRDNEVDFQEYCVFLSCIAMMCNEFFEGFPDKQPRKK

S100A4: recombinant human S100A4 protein cloned from human placenta total RNA, Ca-binding protein of S100 family
concentration of S100A4 from which angiogenesis is induced [1]: ≥ 10 nM
increase of initial rate of plasmin generation ([2]; 2.5 μM S100A4 versus t-PA alone): more than 3 fold
Slope (initial rate of plasmin generation) [2, 3]: 0.250 ΔA405/t^2(min^2) * 1000
Time to Vmax [2, 3]: 1440 s
complex formation with annexin II (annexin II): capable of complex formation with annexin II
